Experiment [1] addresses CRF receptor 2 (CRF-R2) (mouse) (UniProt Q60748). As to the kind of experiment: cell-based or functional assay.
Experiment [2] deals with CRF receptor 1 (CRF-R1) (mouse) (UniProt P35347). The experiment in a line: cell-based or functional assay.

Results on two substances are retold here after US20060024661A1, “Modulation of CRF potentiation of NMDA receptor currents via CRF receptor 2” (The Regents of the University of California, priority 2003, published 2006).

CRF receptor 1 (CRF-R1) (mouse), sequence (P35347 24-415): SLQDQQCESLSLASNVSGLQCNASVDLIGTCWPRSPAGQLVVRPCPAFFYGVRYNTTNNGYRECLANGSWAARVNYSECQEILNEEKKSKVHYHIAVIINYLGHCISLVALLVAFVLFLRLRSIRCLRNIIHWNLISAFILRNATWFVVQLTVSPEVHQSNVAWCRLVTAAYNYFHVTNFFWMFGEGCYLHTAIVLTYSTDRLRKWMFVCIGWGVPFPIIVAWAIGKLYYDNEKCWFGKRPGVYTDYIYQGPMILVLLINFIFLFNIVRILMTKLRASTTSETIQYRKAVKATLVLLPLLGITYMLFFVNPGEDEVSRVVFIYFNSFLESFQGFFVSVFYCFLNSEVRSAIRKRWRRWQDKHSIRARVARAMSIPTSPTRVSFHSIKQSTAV
CRF receptor 2 (CRF-R2) (mouse), sequence (Q60748 20-411): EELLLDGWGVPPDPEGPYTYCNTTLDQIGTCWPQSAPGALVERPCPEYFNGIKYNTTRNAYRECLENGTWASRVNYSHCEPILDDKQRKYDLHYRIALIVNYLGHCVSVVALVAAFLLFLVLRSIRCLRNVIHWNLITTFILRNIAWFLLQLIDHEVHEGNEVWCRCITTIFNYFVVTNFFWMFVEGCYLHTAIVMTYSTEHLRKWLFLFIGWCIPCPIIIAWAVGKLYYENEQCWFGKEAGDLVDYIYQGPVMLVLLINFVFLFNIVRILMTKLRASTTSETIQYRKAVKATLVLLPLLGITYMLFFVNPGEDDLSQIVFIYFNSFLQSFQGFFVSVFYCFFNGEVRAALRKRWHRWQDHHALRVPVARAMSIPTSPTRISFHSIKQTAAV

As to Antisauvagine-30 (peptide), the NMDAR EPSCs (% of baseline) 15 mins after CRF onset in the presence of 30 nM Antisauvagine-30 in experiment [1] stood at 114%.

The substance “human/rat corticotrophin-releasing factor (CRF) (from UniProt P06850 154-194) (peptide)” returned an NMDAR-mediated EPSCs (% of baseline) in VTA dopamine neurons, CRF 100 nM, 25 mins after CRF onset in experiment [1] of 128%. Also, in experiment [2], the hippocampal CA1 field potentials (% of baseline), CRF 1 µM plus 3 µM CP-154,526 (selective CRF-R1 antagonist, small molecule) was determined as 82.9% and the hippocampal CA1 field potentials (% of baseline), CRF 1 µM, 15 mins after CRF onset is 143%.
